Experimental data reported in US20230416313A1 (NAVIGO PROTEINS, published 2023).

Molecular target: T1, recombinant human complement factor H (CFH), isolated from moss (human, UniProt P08603 19-1231)
T1 construct: also called moss-FH; recombinant CFH
Assay: affinity chromatography, ligand on Praesto Epoxy 85, CFH supernatant bound in PBS pH 7.3, eluted at pH 3.5
Protocol: Coupling parameter. Proteins were purified to homogeneity and coupled to resin for AIC experiments. […] Variants were successfully coupled to epoxy-activated Praesto 85 resin.
AIC experiments. Capturing and Elution. For initial column performance tests, resins were packed into superformance 50-5 column housing. Phosphate buffered saline pH 7.3 (PBS) was used to equilibrate the column, followed by applying of 10 mL of recombinant CFH expression supernatant (titer: 0.47 mg/mL) at 6 min residence time. Resin was then washed with PBS for 15 column volumes. Elution was performed at pH 3.5 using 100 mM Citric acid buffer followed by stripping of residual bound CFH at pH 2.0. Elution at pH 3.5 and pH 2.0 was calculated by UV 280 nm absorption.

T1 sequence (P08603 19-1231 limits assumed): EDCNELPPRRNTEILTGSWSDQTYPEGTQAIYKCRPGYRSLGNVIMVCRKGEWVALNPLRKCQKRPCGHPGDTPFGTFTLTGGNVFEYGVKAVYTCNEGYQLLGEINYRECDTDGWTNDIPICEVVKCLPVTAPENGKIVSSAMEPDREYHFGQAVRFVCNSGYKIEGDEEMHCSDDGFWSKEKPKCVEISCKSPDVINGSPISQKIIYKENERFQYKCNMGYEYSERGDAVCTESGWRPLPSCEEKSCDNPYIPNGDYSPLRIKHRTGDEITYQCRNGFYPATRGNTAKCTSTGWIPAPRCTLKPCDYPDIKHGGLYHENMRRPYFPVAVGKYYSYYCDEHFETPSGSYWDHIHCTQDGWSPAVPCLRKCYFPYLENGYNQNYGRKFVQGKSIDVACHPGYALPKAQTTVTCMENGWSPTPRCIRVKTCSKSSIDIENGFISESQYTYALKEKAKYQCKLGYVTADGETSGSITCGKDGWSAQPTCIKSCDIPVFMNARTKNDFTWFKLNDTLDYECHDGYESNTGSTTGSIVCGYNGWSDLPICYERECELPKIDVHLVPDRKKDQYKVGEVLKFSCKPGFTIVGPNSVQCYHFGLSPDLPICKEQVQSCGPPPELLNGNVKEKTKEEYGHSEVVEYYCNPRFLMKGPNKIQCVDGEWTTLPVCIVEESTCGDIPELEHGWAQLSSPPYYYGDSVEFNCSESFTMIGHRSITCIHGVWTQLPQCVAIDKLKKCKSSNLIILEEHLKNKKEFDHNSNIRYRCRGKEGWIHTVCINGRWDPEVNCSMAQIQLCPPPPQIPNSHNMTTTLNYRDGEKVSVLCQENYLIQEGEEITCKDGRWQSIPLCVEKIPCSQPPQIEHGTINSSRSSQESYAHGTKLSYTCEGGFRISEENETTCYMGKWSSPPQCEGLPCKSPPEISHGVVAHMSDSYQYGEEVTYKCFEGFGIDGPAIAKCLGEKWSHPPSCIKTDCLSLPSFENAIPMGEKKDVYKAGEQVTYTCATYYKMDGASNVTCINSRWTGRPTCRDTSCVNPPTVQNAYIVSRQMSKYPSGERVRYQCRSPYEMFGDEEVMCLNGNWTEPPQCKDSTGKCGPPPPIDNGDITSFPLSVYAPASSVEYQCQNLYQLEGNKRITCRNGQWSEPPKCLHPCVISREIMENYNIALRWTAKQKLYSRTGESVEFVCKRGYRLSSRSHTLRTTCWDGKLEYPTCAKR

Binder | Step Yield of CFH at pH 3.5 (percentage elution) [%]
CFH binding protein of SEQ ID NO: 20 (CID 209864) (designed binder, Coupled to Praesto Epoxy 85 resin) IAAKFDEAQQAAFYEILHLPNLTELQRNHFIQTLRDDPSVSLWVLGLAQLLNDSQAPKIAAKFDEAQQHAFYTILHLENLTEEQRNAFIQSLRDDPSVSLEVLGEAIKLNISQAPK | 96
CFH binding protein of SEQ ID NO: 5 (CID 209447) (designed binder, Coupled to Praesto Epoxy 85 resin) NAAEADDAQVSAAMEIIMLPNLTLEQAHSFIESLYRDPSVSKEVLGEAQKLNDSQAPK | 91
